Test results: US6121423, “Reshaped human antibody to human interleukin-6” (Chugai Seiyaku Kabushiki Kaisha, dated 2000)

Molecular target: recombinant human IL-6 (human, UniProt P05231, biotinylated in the binding-inhibition assay (sites not given); unlabelled in the antigen-binding assay)
Assay: ELISA, IL-6 captured by MH166
Procedure: An ELISA plate for antigen-binding assay was prepared as follows. A 96-well plate was coated with mouse monoclonal antibody MH166 recognizing a different epitope of human IL-6 from that recognized by SK2 (Matsuda, T. et al., Eur. J. Immunol. 18, 951–956, 1988), and after blocking, recombinant human IL-6 was added thereto. A sample of the chimeric SK2 antibody was sequentially diluted, added to each well, and then an alkaline phosphatase-conjugated goat anti-human IgG antibody (Sigma) was added thereto. After incubation and washing, substrate was added, and absorbance at 405 nm was measured.

B1: chimeric SK2 antibody NTS (antibody, V domains shown)
VH: QVTLKESGPGILQPSQTLSLTCSFSGFSLSTSGMTVGWIRQPSGKGLEWLAHIWWNDDKYYNPALKGRLTISKDTSNNQVFLKIASVVTADTATYYCARMEDYDEAMDYWGQGTSVTVSS
VL: DIQMTQSPASLSVSVGETVTITCRASENIYSNLAWYQQKQGKSPQLLVYAATYLADGVPSRFSGSGSGTQYSLKINSLQSEDFGSYYCQHFWGTPPFGSGTKLEIK
B1: binds.
